Key:
[1] = biological target: HEV capsid protein domain E2s (ORF2 aa455-602) (Hepatitis E virus) (UniProt Q81871); assay: SEC; Superdex 75 10/300GL in phosphate-buffered saline pH 7.4, 0.5 ml/min, against molecular weight standards
[2] = biological target: HEV capsid protein domain E2s (ORF2 aa455-602) (Hepatitis E virus) (UniProt Q81871); assay: AUC; sedimentation equilibrium; 20°C; phosphate-buffered saline pH 7.4; E2s at 0.69, 0.36 and 0.14 OD; 18,000, 21,000 and 24,000 rpm; single ideal species model and self-association monomer-dimer model; dimer to monomers
[3] = biological target: HEV capsid protein domain E2s (ORF2 aa455-602) (Hepatitis E virus) (UniProt Q81871); assay: AUC; sedimentation velocity; 20°C; E2s 1 mg/ml in phosphate-buffered saline pH 7.4; 60,000 rpm; c(s) method
[4] = biological target: E2-Y485A (Hepatitis E virus) (UniProt Q81871); assay: non-reducing SDS-PAGE; loading buffer with only 0.1% SDS, no BME, sample not boiled; compared with MW markers
[5] = biological target: E2-R542A (Hepatitis E virus) (UniProt Q81871); assay: not stated; 'in solution'; the paragraph names non-reducing SDS-PAGE, analytical ultracentrifugation and gel filtration for the mutants without telling which was used here
[6] = biological target: E2-I529A (Hepatitis E virus) (UniProt Q81871); assay: non-reducing SDS-PAGE; loading buffer with only 0.1% SDS, no BME, sample not boiled; compared with MW markers
[7] = biological target: E2s-Y557A (Hepatitis E virus) (UniProt Q81871); assay: AUC; sedimentation equilibrium; 20°C; phosphate-buffered saline pH 7.4; E2s at 0.69, 0.36 and 0.14 OD; 18,000, 21,000 and 24,000 rpm; single ideal species model and self-association monomer-dimer model; dimer to monomers
[8] = biological target: E2-K534A (Hepatitis E virus) (UniProt Q81871); assay: non-reducing SDS-PAGE; loading buffer with only 0.1% SDS, no BME, sample not boiled; compared with MW markers
[9] = biological target: E2-D496A (Hepatitis E virus) (UniProt Q81871); assay: as above
[10] = biological target: E2-E479A (Hepatitis E virus) (UniProt Q81871); assay: as above
[11] = biological target: HEV capsid protein E2 (ORF2 aa394-606), wild type (Hepatitis E virus, UniProt Q81871 394-606); assay: as above; conditions: both partners purified

Molecule: HEV capsid protein domain E2s (ORF2 aa455-602) (from UniProt Q81871 455-602) (domain or fragment)
- stoichiometry N [1]: 2
- Kd [2]: 397 nM
- stoichiometry N [2]: 2
- stoichiometry N [3]: 2

Molecule: E2-Y485A (from UniProt Q81871 394-606) (domain or fragment)
- stoichiometry N [4]: 2

Molecule: E2-R542A (from UniProt Q81871 394-606) (domain or fragment)
- stoichiometry N [5]: 2

Molecule: E2-I529A (from UniProt Q81871 394-606) (domain or fragment)
- stoichiometry N [6]: 2

Molecule: E2s-Y557A (from UniProt Q81871 455-602) (domain or fragment)
- stoichiometry N [7]: 2

Molecule: E2-K534A (from UniProt Q81871 394-606) (domain or fragment)
- stoichiometry N [8]: 2

Molecule: E2-D496A (from UniProt Q81871 394-606) (domain or fragment)
- stoichiometry N [9]: 2

Molecule: E2-E479A (from UniProt Q81871 394-606) (domain or fragment)
- stoichiometry N [10]: 2

B1: HEV capsid protein E2 (ORF2 aa394-606), wild type (domain or fragment)
chain: MQLFYSRPVVSANGEPTVKLYTSVENAQQDKGIAIPHDIDLGESRVVIQDYDNQHEQDRPTPSPAPSRPFSVLRANDVLWLSLTAAEYDQSTYGSSTGPVYVSDSVTLVNVATGAQAVARSLDWTKVTLDGRPLSTIQQHSKTFFVLPLRGKLSFWEAGTTKAGYPYNYNTTASDQLLVENAAGHRVAISTYTTSLGAGPVSISAVAVLAPHSA
modifications: Wild-type E2, aa394-606, with start Met. The E2s gene was amplified from this E2 gene, so aa455-602 are taken from 3GGQ; the flanks come from genotype 1 Q81871 because the strain is not printed. …
- stoichiometry N [11]: 2
